The subject of data set [1] is VchCAST RNA-guided transposition machinery (E. coli BL21(DE3) host, lacZ target). The data set can be described thus: relative integration efficiency (T-RL orientation) vs wild-type transposon end (log2 (normalized fold change)); transposon end mutated: left end; higher = more efficient transposition. The essentials: (§1)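 Co-transformation of E. coli BL21(DE3) combined a pUC57 mini-transposon donor, holding barcoded pools of 1549 left-end or 1849 right-end variants, with a T7-driven plasmid encoding a CRISPR array, tniQ-cas8-cas7-cas6 and tnsA-tnsB-tnsC. After plating with 0.1 mM IPTG at 37°C for 18 h, input plasmids and genomic integration junctions were PCR-amplified and Illumina-sequenced across two biological output replicates, with four reference barcodes. Relative integration efficiency is the normalised, log-transformed output/input barcode fold change.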

Data set [2] shares this test system. In words: relative integration efficiency (T-LR orientation) vs wild-type transposon end (log2 (normalized fold change)); transposon end mutated: left end; higher = more efficient transposition. The essentials: as §1

± gives the standard deviation of the averaged measurements.

For the sequence “AATGTTGTTGATGCAACCATAAAGTGATATTTAATAATTATTTATAATCAGCAACTTAACCACAAAACAACCATATATTGATATCTCACAAAAACCAACGCCCTGTCGCGGGCTGTGAATCGAGTATTTCAGCAAAACTACTGCAGTAAGAA”, the “relative integration efficiency (log2)” value was -2.5 ± 0.88 in data set [1] and -1.71 ± 0.47 in data set [2].
For the sequence “AATGTTGTTGATGCAACCATAAAGTGATATTTAATAATTATTTATAATCAGCAACTTAACCACAAAACAACCATATATTGATATCTCACAAAAACCAACGCCTGGTCGCGGGGGTGTCCGATCTGATTTCAGCAAAACTACTGCAGTAAGAA”, the “relative integration efficiency (log2)” value was -2.38 ± 1.1 in data set [1] and -0.363 ± 1.2 in data set [2].
The corresponding values for “AATGTTGTTGATGCAACCATAAAGTGATATTTAATAATTATTTATAATCAGCAACTTAACCACAAAACAACCATATATTGATATCTCACAAAACAAAACGCCTGGTCGCGGGGGTGTCCGATCTGATTTCAGCAAAACTACTGCAGTAAGAA” are -2.27 ± 1 and -0.638 ± 1.1.
For “AATGTTGTTGATGCAACCATAAAGTGATATTTAATAATTATTTATAATCAGCAACTTAACCACAAAACAACCATATATTGATATCTCACAAAACAACACGCCTGGTCGCGGGGGTGTCCGATCTGATTTCAGCAAAACTACTGCAGTAAGAA”, the “relative integration efficiency (log2)” value was -2.49 ± 0.9 in data set [1] and -0.741 ± 1.6 in data set [2].
The corresponding values for “AATGTTGTTGATGCAACCATAAAGTGATATTTAATAATTATTTATAATCAGCAACTTAACCACAAAACAACCATATATTGATATCTCACAAAACAACCAGCCTGGTCGCGGGGGTGTCCGATCTGATTTCAGCAAAACTACTGCAGTAAGAA” are -2.22 ± 0.9 and -0.68 ± 0.94.
The corresponding values for “AATGTTGTTGATGCAACCATAAAGTGATATTTAATAATTATTTATAATCAGCAACTTAACCACAAAACAACCATATATTGATATCTCACAAAACAACCATAAGGGTCGCGGGGGTGTCCGATCTGATTTCAGCAAAACTACTGCAGTAAGAA” are -1.87 ± 0.93 and -1.56 ± 1.
“AATGTTGTTGATGCAACCATAAAGTGATATTTAATAATTATTTATAATCAGCAACTTAACCACAAAACAACCATATATTGATATCTCACAAAACAACCATAAGTGTCGCGGGGGTGTCCGATCTGATTTCAGCAAAACTACTGCAGTAAGAA”: the “relative integration efficiency (log2)” value in data set [1] is -2.05 ± 0.76; in data set [2], -1.82 ± 0.77.
Turning to “AATGTTGTTGATGCAACCATAAAGTGATATTTAATAATTATTTATAATCAGCAACTTAACCACAAAACAACCATATATTGATATCTCACAAAACAACCATAAGTTGAGCGGGGGTGTCCGATCTGATTTCAGCAAAACTACTGCAGTAAGAA”, the “relative integration efficiency (log2)” value is -1.32 ± 0.58 in data set [1] and -1.81 ± 0.51 in data set [2].
The corresponding values for “AATGTTGTTGATGCAACCATAAAGTGATATTTAATAATTATTTATAATCAGCAACTTAACCACAAAACAACCATATATTGATATCTCACAAAACAACCATAAGTTGATAGGGGGTGTCCGATCTGATTTCAGCAAAACTACTGCAGTAAGAA” are -0.795 ± 0.62 and -0.256 ± 0.057.
For “AATGTTGTTGATGCAACCATAAAGTGATATTTAATAATTATTTATAATCAGCAACTTAACCACAAAACAACCATATATTGATATCTCACAAAACAACCATAAGTTGATATGGGGTGTCCGATCTGATTTCAGCAAAACTACTGCAGTAAGAA”, the “relative integration efficiency (log2)” value was -0.33 ± 0.14 in data set [1] and -0.611 ± 0.81 in data set [2].
With “AATGTTGTTGATGCAACCATAAAGTGATATTTAATAATTATTTATAATCAGCAACTTAACCACAAAACAACCATATATTGATATCTCACAAAACAACCATAAGTTGATATGTGAATCGAGTATTTCAGCAAAACTACTGCAGTAAGAAAGTT”, the “relative integration efficiency (log2)” value in data set [1] is -0.276 ± 0.26; in data set [2], -0.00636 ± 0.11.
Take “AATGTTGTTGATGCAACCATAAAGTGATATTTAATAATTATTTATAATCAGCAACTTAACCACAAAACAACCATATATTGATATCTCACAAAACAACCATAAGTTGATATTGGGTGTCCGATCTGATTTCAGCAAAACTACTGCAGTAAGAA”: the “relative integration efficiency (log2)” value in data set [1] was -0.13 ± 0.053; in data set [2], -0.651 ± 0.46.
“AATGTTGTTGATGCAACCATAAAGTGATATTTAATAATTATTTATAATCAGCAACTTAACCACAAAACAACCATATATTGATATCTCACAAAACAACCATAAGTTGATATTGTGAATCGAGTATTTCAGCAAAACTACTGCAGTAAGAAAGT”: the entries for the “relative integration efficiency (log2)” value in data set [1] and in data set [2] were -0.306 ± 0.15 and -0.0935 ± 0.19, respectively.
Consider “AATGTTGTTGATGCAACCATAAAGTGATATTTAATAATTATTTATAATCAGCAACTTAACCACAAAACAACCATATATTGATATCTCACAAAACAACCATAAGTTGATATTTGTGAATCGAGTATTTCAGCAAAACTACTGCAGTAAGAAAG”, for which the entries for the “relative integration efficiency (log2)” value in data set [1] and in data set [2] were -0.116 ± 0.072 and 0.0663 ± 0.15, respectively.
The corresponding values for “AATGTTGTTGATGCAACCATAAAGTGATATTTAATAATTATTTATAATCAGCAACTTAACCACAAAACAACCATATATTGATATCTCACAAAACAACCATAAGTTGATATTTTGTGAATCGAGTATTTCAGCAAAACTACTGCAGTAAGAAA” are 0.0855 ± 0.0046 and 0.169 ± 0.12.
The corresponding values for “AATGTTGTTGATGCAACCATAAAGTGATATTTAATAATTATTTATAATCAGCAACTTAACCACAAAACAACCATATATTGATATCTCACAAAACAACCATAAGTTGATCGGGGGTGTCCGATCTGATTTCAGCAAAACTACTGCAGTAAGAA” are -1.03 ± 0.49 and -1.32 ± 0.59.
The corresponding values for “AATGTTGTTGATGCAACCATAAAGTGATATTTAATAATTATTTATAATCAGCAACTTAACCACAAAACAACCATATATTGATATCTCACAAAACAACCATAAGTTGATTGTGAATCGAGTATTTCAGCAAAACTACTGCAGTAAGAAAGTTA” are -0.574 ± 0.38 and -0.858 ± 0.1.
With “AATGTTGTTGATGCAACCATAAAGTGATATTTAATAATTATTTATAATCAGCAACTTAACCACAAAACAACCATATATTGATATCTCACAAAACAACCATAAGTTGCGCGGGGGTGTCCGATCTGATTTCAGCAAAACTACTGCAGTAAGAA”, the “relative integration efficiency (log2)” value in data set [1] is -1.74 ± 0.81; in data set [2], -3.15 ± 1.6.
The corresponding values for “AATGTTGTTGATGCAACCATAAAGTGATATTTAATAATTATTTATAATCAGCAACTTAACCACAAAACAACCATATATTGATATCTCACAAAACAACCATAAGTTTCGCGGGGGTGTCCGATCTGATTTCAGCAAAACTACTGCAGTAAGAA” are -2.22 ± 0.95 and -2.11 ± 1.5.
As for “AATGTTGTTGATGCAACCATAAAGTGATATTTAATAATTATTTATAATCAGCAACTTAACCACAAAACAACCATATATTGATATCTCACAAAACAACCATAATGGTCGCGGGGGTGTCCGATCTGATTTCAGCAAAACTACTGCAGTAAGAA”, the “relative integration efficiency (log2)” value in data set [1] was -1.93 ± 0.81; in data set [2], -1.31 ± 0.87.
The corresponding values for “AATGTTGTTGATGCAACCATAAAGTGATATTTAATAATTATTTATAATCAGCAACTTAACCACAAAACAACCATATATTGATATCTCACAAAACAACCATACTGGTCGCGGGGGTGTCCGATCTGATTTCAGCAAAACTACTGCAGTAAGAA” are -2.24 ± 0.99 and -0.966 ± 1.7.
The corresponding values for “AATGTTGTTGATGCAACCATAAAGTGATATTTAATAATTATTTATAATCAGCAACTTAACCACAAAACAACCATATATTGATATCTCACAAAACAACCATCCTGGTCGCGGGGGTGTCCGATCTGATTTCAGCAAAACTACTGCAGTAAGAA” are -1.99 ± 0.82 and -0.61 ± 0.64.
Regarding “AATGTTGTTGATGCAACCATAAAGTGATATTTAATAATTATTTATAATCAGCAACTTAACCACAAAACAACCATATATTGATATCTCACAAAACAACCCGCCTGGTCGCGGGGGTGTCCGATCTGATTTCAGCAAAACTACTGCAGTAAGAA”, the “relative integration efficiency (log2)” value is -2.27 ± 0.81 in data set [1] and -1.63 ± 2.3 in data set [2].
Consider “AATGTTGTTGATGCAACCATAAAGTGATATTTAATAATTATTTATAATCAGCAACTTAACCACAAAACAACCATATATTGATATCTCACAAAACACAACGCCTGGTCGCGGGGGTGTCCGATCTGATTTCAGCAAAACTACTGCAGTAAGAA”, for which the “relative integration efficiency (log2)” value was -2.63 ± 1.3 in data set [1] and -0.789 ± 1.1 in data set [2].
In the case of “AATGTTGTTGATGCAACCATAAAGTGATATTTAATAATTATTTATAATCAGCAACTTAACCACAAAACAACCATATATTGATATCTCACAAAACCCAACGCCTGGTCGCGGGGGTGTCCGATCTGATTTCAGCAAAACTACTGCAGTAAGAA”, the “relative integration efficiency (log2)” value in data set [1] was -2.31 ± 0.93; in data set [2], -0.934 ± 0.6.
Consider “AATGTTGTTGATGCAACCATAAAGTGATATTTAATAATTATTTATAATCAGCAACTTAACCACAAAACAACCATATATTGATATCTCACAAAAGTTGGTATTCAACTATAAAATGTGAATCGAGTATTTCAGCAAAACTACTGCAGTAAGAA”, for which the “relative integration efficiency (log2)” value is -2.5 ± 0.79 in data set [1] and -0.838 ± 0.94 in data set [2].
In the case of “AATGTTGTTGATGCAACCATAAAGTGATATTTAATAATTATTTATAATCAGCAACTTAACCACAAAACAACCATATATTGATATCTCACAAACAACCATAAGTTGATATTTTTGTGAATCGAGTATTTCAGCAAAACTACTGCAGTAAGAAA”, the “relative integration efficiency (log2)” value in data set [1] is -1.69 ± 0.68; in data set [2], -0.446 ± 0.92.
With “AATGTTGTTGATGCAACCATAAAGTGATATTTAATAATTATTTATAATCAGCAACTTAACCACAAAACAACCATATATTGATATCTCACAAACACCAACGCCTGGTCGCGGGGGTGTCCGATCTGATTTCAGCAAAACTACTGCAGTAAGAA”, the “relative integration efficiency (log2)” value is -2.54 ± 0.9 in data set [1] and -0.664 ± 1.2 in data set [2].
On to “AATGTTGTTGATGCAACCATAAAGTGATATTTAATAATTATTTATAATCAGCAACTTAACCACAAAACAACCATATATTGATATCTCACAACAACCATAAGTTGATATTTTTGTGAATCGAGTATTTCAGCAAAACTACTGCAGTAAGAAAG”, for which the “relative integration efficiency (log2)” value is -3.43 ± 0.95 in data set [1] and -1.51 ± 0.32 in data set [2].

The record behind these values is the supplement of paper PMC10201428.
